Measured values from patent publication US10323078B2, “Isolated peptides and fragments thereof from fibrinogen for use as drugs, particularly in skin inflammatory diseases” (Universite Paris Descartes, priority 2015, dated 2019).

What was measured:
P. acnes 6919 strain = experiment: Adhesion assay, biotinylated P. acnes binding to HaCaT keratinocytes; type: cell-based, Propionibacterium acnes; conditions: P. acnes 6919 pre-treated with whole fibrinogen 0.01 to 0.5 mM, 1 h at 37° C.
Protocol: FIG. 12: Dose-dependent inhibition of P. acnes binding to keratinocytes. Biotinylated P. acnes 6919 strain at concentrations adjusted to 0.1 of absorbance at 600 nm was pre-treated with whole human (dark gray bar) and bovine (light gray bar) fibrinogen at the concentrations ranging from 0.01 to 0.5 mM and incubated 1 h at 37° C. with the human HaCaT keratinocyte cell line. After removal of unbound bacteria, adhesion activity was detected at 410 nm. Data are means±S.D. of three separate experiments. Statistical significance is indicated by * (P<0.05), ** (P<0.01), *** (P<0.001), and **** (P<0.0001), respectively.
The bacterial suspension was adjusted at 600 nm to the desired concentration, pretreated with peptides Fg1 and Fg2 at the final concentration ranging from 0.87 to 7 μM for 1 h at 37° C. and deposited on the previously saturated cells with a solution of PBS SVF 2% for 2 h. After incubation for 1 h at 37° C., unbound bacteria are removed by 3 washes with PBS and fixed bacteria are detected by a streptavidin-peroxidase solution of 0.5 μg/ml for 30 min.
Whole P. acnes bacteria are labelled by biotinylation, pre-treated or not with the peptides and contacted with the various cell lines. After removal of the unfixed bacteria, the adhesion activity was measured spectrophotometrically by using the streptavidin-peroxidase conjugate and a chromogenic substrate. […]

Pfg [1] = experiment: Western ligand blot with biotinylated Pfg; type: binding, Propionibacterium acnes; conditions: 10 μg per lane, 10% SDS-PAGE; biotinylated Pfg 0.1 μg/ml
Protocol: (§1) FIG. 5: Binding of P. acnes surface proteins to fibrinogen. (A) Various quantities of human fibrinogen (hFg) and bovine fibrinogen (bFg) were immobilized onto a 96-well polystyrene plate at 4° C. for 18 h and incubated with biotinylated Pfg at 0.1 μg/ml for 2 h at 23° C. Bovine serum albumin (BSA) was used as negative control. Bound material was detected by using the HRP-streptavidin conjugate. Peroxidase activity was measured by using the ABTS substrate at 405 nm. Proteins (10 μg per lane) were separated by 10% SDS-PAGE and detected by (B) Commassie blue staining, and transferred to nitrocellulose membrane and incubated with (C) HRP-streptavidine alone, and (D) biotinylated Pfg (0.1 μg/ml). Lanes 1: molecular weight standards. Lane 2: BSA. Lane 3: hFg. Lane 4: bFg.
FIG. 8: Cloning of Bß human fibrinogen fragments and binding with Pfg. (A) Cloning and expression of recombinant human Bß fibrinogen fragments Fg1, Fg2, Fg3 and Fg4. Fibrinogen fragments were obtained by RT-PCR and expression plasmids were constructed as described in Materials and Methods. (B) GST-fused proteins were expressed in E. coli, fractionated by 12.5% SDS-PAGE, and detected by Coomassie blue staining (B), and incubated with biotinylated Pfg (0.1 μg/ml) as described in Materials and Methods (C).
To characterize the interaction between P. acnes and ligands, we used biotinylated molecules in quantitative and qualitative assays. In a first set of assays, ECM ligands (fibrinogen, collagens I, IV, VI and VIII) were used as labelled proteins with biotin. In a second set of assays, P. acnes surface proteins (total extract and purified Pfg) were biotinylated. For quantitative analysis, unlabeled protein were diluted into 50 mM carbonate-bicarbonate, pH 9.6 buffer to yield a protein concentration ranging from 0.01 to 50 μg/ml, and then immobilized to 96-well polystyrene plates at 4° C. overnight. The wells were rinsed three times with 0.2 ml of PBS containing 0.05% Tween-20 (PBS-Tween). Biotinylated proteins (0.01 to 16 μg/ml in PBS-Tween) were added to the wells and incubated at room temperature for 1 h. The wells were rinsed three times with 0.2 ml of PBS-Tween. Peroxidase conjugated to streptavidin (0.5 μg/ml in PBS-Tween) was added and incubated for 30 min at room temperature. After washing, bound peroxidase was detected using the chromogenic peroxidase substrate ABTS. For qualitative analysis, unlabelled protein (10-75 μg per lane) were separated by SDS-PAGE and then transferred to nitrocellulose membranes (0.45 μm pore size), as described previously (Towbin, 1979). Membranes were then saturated overnight at 4° C. in PBS containing 5% BSA, 0.05% Tween-20 (PBT buffer). Binding activity was detected by incubating the membranes with 20 ml of PBT containing biotinylated proteins (0.1 μg/ml) for 2 h at room temperature followed by three washes with PBT. Bound biotinylated proteins were detected by incubating the membrane with peroxidase conjugated to streptavidin (0.5 μg/ml in PBT) for 1 h at room temperature. After washing, bound peroxidase activity was detected using 3,3′-diaminobenzidine in the presence of CoCl2 and H2O2 (Harlow and Lane, 1988).
Since it was shown that Pfg is recognized by fibrinogen, this ECM ligand was used to analyze the nature of this interaction. First it was analyzed the ability of fibrinogen to be recognized by purified Pfg (FIG. 5). Human and bovine Fg (hFg, bFg) were immobilized to polysterene plate and the binding activity of biotinylated Pfg was measured. […] It has been shown that fibrinogen is a glycoprotein containing both N- and O-linked glycans (Debeire 1985; Reid Townsend 1982; L'Hôte 1996). […] In parallel, deglycosylation was assessed by visualization of a shift in the mobility after electrophoresis separation and Coomassie blue staining (FIG. 6A, lanes 3 and 5) and also by using the RCA-I plant lectin able to recognize ß-linked galactosyl residues in terminal position (FIG. 6C) (Green, 1987). […]

Pfg [2] = experiment: Binding of biotinylated Pfg to immobilized fibrinogen (polystyrene plate); parameters: species or system Propionibacterium acnes; conditions: various quantities of fibrinogen immobilized; biotinylated Pfg 0.1 μg/ml, 2 h at 23° C.
Protocol: as §1, with “Lane 3: hFg. Lane 4: bFg.” left out
To characterize the interaction between P. acnes and ligands, we used biotinylated molecules in quantitative and qualitative assays. […] For quantitative analysis, unlabeled protein were diluted into 50 mM carbonate-bicarbonate, pH 9.6 buffer to yield a protein concentration ranging from 0.01 to 50 μg/ml, and then immobilized to 96-well polystyrene plates at 4° C. overnight. […] After washing, bound peroxidase was detected using the chromogenic peroxidase substrate ABTS. […] Binding activity was detected by incubating the membranes with 20 ml of PBT containing biotinylated proteins (0.1 μg/ml) for 2 h at room temperature followed by three washes with PBT. […]

B1: bovine fibrinogen: purified commercial bovine fibrinogen (Sigma) (protein)
chain 1: EDGSDPPSGDFLTEGGGVRGPRLVERQQSACKETGWPFCSDEDWNTKCPSGCRMKGLIDEVDQDFTSRINKLRDSLFNYQKNSKDSNTLTKNIVELMRGDFAKANNNDNTFKQISEDLRSRIEILRRKVIEQVQRIKVLQKNVRDQLVDMKRLEVDIDIKIRSCKGSCSRALEHKVDLEDYKNQQKQLEQVIAINLLPSRDIQYLPLIKMSTITGPVPREFKSQLQEAPLEWKALLEMQQTKMVLETFGGDGHARGDSVSQGTGLAPGSPRKPGTSSIGNVNPGSYGPGSSGTWNPGRPEPGSAGTWNPGRPEPGSAGTWNPGRPEPGSAGTWNPGRPEPGSAGTWNPGRPEPGSAGTWNTGSSGSSSFRPDSSGHGNIRPSSPDWGTFREEGSVSSGTKQEFHTGKLVTTKGDKELLIDNEKVTSGHTTTTRRSCSKVITKTVTNADGRTETTKEVVKSEDGSDCGDADFDWHHTFPSRGNLDDFFHRDKDDFFTRSSHEFDGRTGLAPEFAALGESGSSSSKTSTHSKQFVSSSTTVNRGGSAIESKHFKMEDEAESLEDLGFKGAHGTQKGHTKARPARGIHTSPLGEPSLTP
chain 2: QFPTDYDEGQDDRPKVGLGARGHRPYDKKKEEAPSLRPVPPPISGGGYRARPATATVGQKKVERKPPDADGCLHADPDLGVLCPTGCKLQDTLVRQERPIRKSIEDLRNTVDSVSRTSSSTFQYITLLKNMWKGRQNQVQDNENVVNEYSSHLEKHQLYIDETVKNNIPTKLRVLRSILENLRSKIQKLESDVSTQMEYCRTPCTVTCNIPVVSGKECEKIIRNEGETSEMYLIQPEDSSKPYRVYCDMKTEKGGWTVIQNRQDGSVDFGRKWDPYKQGFGNIATNAEGKKYCGVPGEYWLGNDRISQLTNMGPTKLLIEMEDWKGDKVTALYEGFTVQNEANKYQLSVSKYKGTAGNALIEGASQLVGENRTMTIHNSMFFSTYDRDNDGWKTTDPRKQCSKEDGGGWWYNRCHAANPNGRYYWGGAYTWDMAKHGTDDGVVWMNWQGSWYSMKKMSMKIRPYFPEQ
chain 3: YVATRDNCCILDERFGSYCPTTCGIADFLNNYQTSVDKDLRTLEGILYQVENKTSEARELVKAIQISYNPDQPSKPNNIESATKNSKSMMEEIMKYETLISTHESTIRFLQEVYNSNSQKIVNLRDKVVQLEANCQEPCQDTVKIHDVTGRDCQDVANKGAKESGLYFIRPLKAKQFLVYCEIDGSGNGWTVFQKRLDGSLDFKKNWIQYKEGFGHLSPTGTGNTEFWLGNEKIHLISTQSSIPYVLRIQLEDWNGRTSTADYASFKVTGENDKYRLTYAYFIGGDAGDAFDGYDFGDDSSDKFFTSHNGMQFSTWDSDNDKYDGNCAEQVGIGWWMNKCHAGHLNGVYYQGGTYSKTSTPNGYDNGIIWATWKSRWYSMKKTTMKIIPLNRLAIGEGQQHQLGGAKQVGVEHHVEIEYD
For B1, the “Inhibition of adhesion of P. acnes to keratinocytes” value (P. acnes 6919 strain) was “able to inhibit the adhesion”, the “Recognition by biotinylated Pfg after electrophoretic separation of fibrinogen” value (Pfg [1]) was “recognized by Pfg” and the “Binding of biotinylated Pfg to immobilized fibrinogen” value (Pfg [2]) was “dose-dependent”.
